Values quoted from earlier work as cited in patent US5763478A, “Triterpene derivatives with immunosuppressant activity” (Merck & Co., Inc., priority 1996, dated 1998).

Molecular target: T1, KV 1.3 channels (CHO cells transfected with KV 1.3) (Homo sapiens, UniProt P22001)
T1 construct: expressed in transfected cells; host or cells: CHO cells
Conditions: reference blocker used at saturating concentration to set the efflux window

T1 sequence (P22001 53-575 limits assumed): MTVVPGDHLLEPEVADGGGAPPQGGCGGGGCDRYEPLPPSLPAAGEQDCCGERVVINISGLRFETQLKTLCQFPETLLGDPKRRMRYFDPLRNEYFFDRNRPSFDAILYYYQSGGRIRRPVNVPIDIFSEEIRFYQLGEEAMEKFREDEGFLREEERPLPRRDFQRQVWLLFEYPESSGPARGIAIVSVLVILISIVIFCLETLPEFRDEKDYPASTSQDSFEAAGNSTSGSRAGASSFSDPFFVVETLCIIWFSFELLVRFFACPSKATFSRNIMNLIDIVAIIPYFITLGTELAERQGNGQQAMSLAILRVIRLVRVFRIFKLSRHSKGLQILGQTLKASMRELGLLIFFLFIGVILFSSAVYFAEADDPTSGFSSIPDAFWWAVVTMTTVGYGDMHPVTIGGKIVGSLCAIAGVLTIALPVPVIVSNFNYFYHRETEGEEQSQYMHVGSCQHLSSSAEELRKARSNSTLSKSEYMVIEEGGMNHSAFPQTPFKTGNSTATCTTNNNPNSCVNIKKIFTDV

In the case of “margatoxin (TIINVKCTSPKQCLPPCKAQFGQSAGAKCMNGKCKCYPH; UniProt P40755 1-39, looked up)”, the IC50 is listed as 0.1 nM.
